Experimental data: patent US20160310583A1 (SUMITOMO DAINIPPON PHARMA, published 2016)
Like-named read-outs stand apart in the source and are kept apart here.

Experiments:
Assay in all cases: MHC class I stabilization on T2-A24 cells, flow cytometry, 100 ug/mL peptide
[1] = target: T1, HLA-A*02:01 (human)
T1 construct: whole, on cells; MHC class I molecule, empty until peptide is added; detected with FITC anti-HLA-A02 antibody BB7.2

[2] = target: T2, HLA-A*24:02 (human)
T2 construct: whole, on cells; MHC class I molecule, empty until peptide is added; detected with FITC anti-HLA-A24 antibody 17A10

[3] = target: T2, HLA-A*24:02; remark: listed apart in the source
[4] = target: T1, HLA-A*02:01; remark: listed apart in the source

| Binder | MFI (solvent ratio) [1] | MFI (solvent ratio) [2] | MFI (solvent ratio) [3] | MFI (solvent ratio) [4] |
| --- | --- | --- | --- | --- |
| LYARSCVPSSF [FAM83B-derived peptide F276_11] | 1.2 ratio to solvent | 3.4 ratio to solvent | ≥ 1.5 ratio to solvent |  |
| SYGRSSPLL [FAM83B-derived peptide F971_9] | 1.1 ratio to solvent | 1.8 ratio to solvent | ≥ 1.5 ratio to solvent |  |
| LLDESNFNHFL [FAM83B-derived peptide F179_11] | 1.6 ratio to solvent | 1.1 ratio to solvent |  | ≥ 1.5 ratio to solvent |
| PLPESIPKL [FAM83B-derived peptide F594_9] |  | 3.8 ratio to solvent | ≥ 1.5 ratio to solvent |  |
| FLAEEEINYIL [FAM83B-derived peptide F55_11] | 3.6 ratio to solvent | 1 ratio to solvent |  | ≥ 1.5 ratio to solvent |
| HLLTIKETI [FAM83B-derived peptide F131_9] | 1.5 ratio to solvent | 2.4 ratio to solvent | ≥ 1.5 ratio to solvent | ≥ 1.5 ratio to solvent |
| VIALVMDIFT [FAM83B-derived peptide F149_10] | 1.3 ratio to solvent | 2.1 ratio to solvent | ≥ 1.5 ratio to solvent |  |
| KVIALVMDI [FAM83B-derived peptide F148_9] | 2.4 ratio to solvent | 1.6 ratio to solvent | ≥ 1.5 ratio to solvent | ≥ 1.5 ratio to solvent |
| LVQERVSDFL [FAM83B-derived peptide F47_10] | 1.1 ratio to solvent | 1.5 ratio to solvent | ≥ 1.5 ratio to solvent |  |
| TLSSGTYWPV [FAM83B-derived peptide F86_10] | 3 ratio to solvent | 1 ratio to solvent |  | ≥ 1.5 ratio to solvent |
| HYKEWYRVAI [FAM83B-derived peptide F23_10] | 2 ratio to solvent | 3 ratio to solvent | ≥ 1.5 ratio to solvent | ≥ 1.5 ratio to solvent |
| NLDLGWPYV [FAM83B-derived peptide F103_9] | 2.6 ratio to solvent | 1.1 ratio to solvent |  | ≥ 1.5 ratio to solvent |
| GLLGGTHIDLL [FAM83B-derived peptide F114_11] | 2.9 ratio to solvent | 1.1 ratio to solvent |  | ≥ 1.5 ratio to solvent |
| SYQPNENKF (also called FAM83B peptide) [FAM83B-derived peptide SF_9] | 1 ratio to solvent | 2.3 ratio to solvent | ≥ 1.5 ratio to solvent |  |
| FLAEEEINYI [FAM83B-derived peptide F55_10] | 3.5 ratio to solvent | 1.2 ratio to solvent |  | ≥ 1.5 ratio to solvent |
| SMVQIITGQLV [FAM83B-derived peptide F256_11] | 3.2 ratio to solvent | 1.1 ratio to solvent |  | ≥ 1.5 ratio to solvent |
| NYILKNVQKV [FAM83B-derived peptide F62_10] | 2.9 ratio to solvent | 1.6 ratio to solvent | ≥ 1.5 ratio to solvent | ≥ 1.5 ratio to solvent |
| KVMYGSYSYMWSF [FAM83B-derived peptide F238_13] | 1.2 ratio to solvent | 5.1 ratio to solvent | ≥ 1.5 ratio to solvent |  |
| GWPYVMPGLL [FAM83B-derived peptide F107_10] | 1 ratio to solvent | 2.7 ratio to solvent | ≥ 1.5 ratio to solvent |  |
| TYQHSVSSLASV [FAM83B-derived peptide F305_12] | 2 ratio to solvent | 3.1 ratio to solvent | ≥ 1.5 ratio to solvent | ≥ 1.5 ratio to solvent |
| WYRVAIDILI [FAM83B-derived peptide F27_10] | 1.2 ratio to solvent | 3.2 ratio to solvent | ≥ 1.5 ratio to solvent |  |

| Binder | MFI (solvent ratio) [1] | MFI (solvent ratio) [2] | MFI (solvent ratio) [3] | MFI (solvent ratio) [4] |
| --- | --- | --- | --- | --- |
| RLCSSSDTLV [FAM83B-derived peptide F799_10] | 2.1 ratio to solvent | 1.2 ratio to solvent |  | ≥ 1.5 ratio to solvent |
| YILKNVQKV [FAM83B-derived peptide F63_9] | 3.3 ratio to solvent | 1 ratio to solvent |  | ≥ 1.5 ratio to solvent |
| HGLEAYQEFLV [FAM83B-derived peptide F38_11] | 2.5 ratio to solvent | 3.1 ratio to solvent | ≥ 1.5 ratio to solvent | ≥ 1.5 ratio to solvent |
| VMYGSYSYMWSF [FAM83B-derived peptide F239_12] | 1.6 ratio to solvent | 4 ratio to solvent | ≥ 1.5 ratio to solvent | ≥ 1.5 ratio to solvent |
| TYQHSVSSL [FAM83B-derived peptide F305_9] | 1.1 ratio to solvent | 2.4 ratio to solvent | ≥ 1.5 ratio to solvent |  |
| MVQIITGQLV [FAM83B-derived peptide F257_10] | 1.9 ratio to solvent | 1.1 ratio to solvent |  | ≥ 1.5 ratio to solvent |
| VYILLDESNF [FAM83B-derived peptide F176_10] | 1.2 ratio to solvent | 2.7 ratio to solvent | ≥ 1.5 ratio to solvent |  |
| KPLPESIPKL [FAM83B-derived peptide F593_10] | 1.9 ratio to solvent | 3.5 ratio to solvent | ≥ 1.5 ratio to solvent | ≥ 1.5 ratio to solvent |
| VMDIFTDVDIF [FAM83B-derived peptide F153_11] | 0.9 ratio to solvent | 2 ratio to solvent | ≥ 1.5 ratio to solvent |  |
| PFCKIESSI [FAM83B-derived peptide F939_9] | 0.9 ratio to solvent | 2.7 ratio to solvent | ≥ 1.5 ratio to solvent |  |
| VMYGSYSYMW [FAM83B-derived peptide F239_10] | 1.1 ratio to solvent | 2.2 ratio to solvent | ≥ 1.5 ratio to solvent |  |
| SFNGTDNHIRF [FAM83B-derived peptide F466_11] | 1 ratio to solvent | 1.7 ratio to solvent | ≥ 1.5 ratio to solvent |  |
| FLVQERVSDFL [FAM83B-derived peptide F46_11] |  | 1.6 ratio to solvent | ≥ 1.5 ratio to solvent |  |
| FLQQRMPTL [FAM83B-derived peptide F476_9] | 2 ratio to solvent | 2.6 ratio to solvent | ≥ 1.5 ratio to solvent | ≥ 1.5 ratio to solvent |
| KVIALVMDIF [FAM83B-derived peptide F148_10] | 1.1 ratio to solvent | 2.6 ratio to solvent | ≥ 1.5 ratio to solvent |  |
| NYIEPHYKEW [FAM83B-derived peptide F18_10] | 1 ratio to solvent | 3.2 ratio to solvent | ≥ 1.5 ratio to solvent |  |
| ALVMDIFTDV [FAM83B-derived peptide F151_10] | 3.4 ratio to solvent | 1 ratio to solvent |  | ≥ 1.5 ratio to solvent |
| SYFKNRGIYTL [FAM83B-derived peptide F335_11] | 1 ratio to solvent | 2.3 ratio to solvent | ≥ 1.5 ratio to solvent |  |
| RFLQQRMPTL [FAM83B-derived peptide F475_10] | 1.9 ratio to solvent | 3 ratio to solvent | ≥ 1.5 ratio to solvent | ≥ 1.5 ratio to solvent |
| FLLVDCQKVM [FAM83B-derived peptide F231_10] | 2 ratio to solvent | 1 ratio to solvent |  | ≥ 1.5 ratio to solvent |
| SYMWSFEKAHL [FAM83B-derived peptide F245_11] | 1.5 ratio to solvent | 2.9 ratio to solvent | ≥ 1.5 ratio to solvent | ≥ 1.5 ratio to solvent |
